In the supplement of paper PMC9170038:

Tested on: MS2 coat protein
Assay: apparent KD of MS2 coat protein; designed switch direction (-1 OFF switch, 1 ON switch): -1; higher = weaker reporter binding
How it was run: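 Designed RNA switches with common flanks were transcribed on Illumina chips by stalled E. coli RNA polymerase and titrated with SNAP-549-labelled MS2 coat protein, from 0.7 or 1.5 nM doubling to 3 µM, in Tris-HCl pH 7.5 buffer with KCl, MgCl2, BSA, DTT, tRNA and Tween-20. Steps lasted 0.8–1.5 h (lowest) to 10–20 min (highest). Titrations ran without input, with 200 uM small-molecule ligand, or with an oligonucleotide input. Normalised cluster fluorescence was curve-fitted, and apparent KD is the per-design median over clusters.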

[1] = Eterna round: R95, input ligand: microRNA oligo, concentration not stated
[2] = input ligand: microRNA oligo, concentration not stated
[3] = Eterna round: R95, input ligand: FMN 200 uM
[4] = Eterna round: R95, input ligand: none

Sequence | apparent KD of MS2 coat protein [1] | apparent KD of MS2 coat protein (input ligand: FMN 200 uM) | apparent KD of MS2 coat protein (input ligand: none) | further results
UUUUACCGAGGAUAUACAUAUAAAUAAUAAUCCUCAUUAUUACAUGAGGAUCACCCAUGUAGAAGGCGGAUUUU [Mat - Exclusion 2 - Mod of Hog - D88] (puzzle: Exclusion 2) | 96.3 nM | – | – | –
CUGCUCCGUGUAGGAUAUCCGCGCAACCAAUGCGGAGAAGGACAUGAGGAUCACCCAUGUAUGUUAUUAUCACGUGAAGCGUCC [Design 26] (Eterna round: R96, puzzle: Exclusion NG 1) | – | 24.8 nM | 24.8 nM | apparent KD of MS2 coat protein [2]: 13.7 nM
GGCUCGCCUCACAUGAGGAUCACCCAUGUACAAAACAAGAGGCAGGAUAUGGGCCGCGCAGCGGGCCAGAAGGGCCGCAUGGGU [Edsodidige] (Eterna round: R96, puzzle: Exclusion NG 3) | – | 62.9 nM | 113 nM | apparent KD of MS2 coat protein [2]: 67.7 nM
GCAAGCUUUUGCUCGGCUUACAUGAGGAUCACCCAUGUGGGCCCGGGCCCGGGCCCGCCGGGCCCGGGCCCGGGCCC [-58.5, -80.7, A 10%] (Eterna round: R97, puzzle: Sensor, turn-off variant 1) | – | 24.4 nM | 25.4 nM | –
GUAAACGAUCAGGAUAUAUCAAAUCAUAGCUUGAUAGAAGGGAUCACAUGAGGAUCACCCAUGUGAUCUUCUUU [jl-ex6-4.15 ViennaUCT mod] (Eterna round: R97, puzzle: Exclusion 6) | – | 13.2 nM | 13.9 nM | –
UAUGGUUAAGUCAGGAUAUGCUCAUAGAAGUCUGUGCAGAAGGGACAUGAGGAUCACCCAUGUAUGGUAGUGUU [Ex4 #61] (Eterna round: R97, puzzle: Brourd's mod of Exclusion 4) | – | 293 nM | 460 nM | –
UUUUAGCAAGGAUAUACAUUUUUUUUAUUAUCCUCAUUAUUACAUGAGGAUCACCCAUGUAGAAGGUGCAUUUU [My Design] (puzzle: Exclusion 2) | 36.7 nM | – | – | –
AAGAAUCAAGGAUAUGCAUGAUACGACAUGAGGAUCACCCAUGUCCUCACGCGUAUCCUUGCAGAAGGUGAGUAUA [EX5 A.22] (Eterna round: R97, puzzle: Exclusion 5) | – | 15 nM | 15.3 nM | –
CUCUUGUCAGGAUAUUAUGGACGAUAGCAGGACUACGUCAGUGAGAAGGGACAUGAGGAUCACCCAUGUAAAAU [Anqubi] (puzzle: Exclusion 4) | 72.6 nM | – | – | –
CGGCGGGCAGGAUAUGGAAAUAAUAACAUGAGGAUCACCCAUGUAAAUAAAUGGGAAUAACCAGAAGGGCUUGUUG [-18.2, -17.7 kcal, A 37%] (Eterna round: R97, puzzle: Exclusion 5) | – | 49.7 nM | 90.9 nM | –
UUUUAACAUGAGGAUCACCCAUGUGAGGAUAUCGAAAUUUAUAUUAAUAUUAUUUAAUCGAGAAGGCACAUUUU [JMF 44] (puzzle: Exclusion 1) | 100 nM | – | – | –
AUUAUACAUGAGGAUCACCCAUGUGAGGAUAUCCGCAGCACAGGCAGAGUCGGUUGCAGGAGAAGGCACUCCUC [Eternabot (L1) Solution 57] (Eterna round: R97, puzzle: Exclusion 1) | – | 72.5 nM | 44.4 nM | –
GACCGGACGUGGUCAGGUAACAUGAGGAUCACCCAUGUAGGUCUAGGAACAAGCUUUUUGAAAGCUCGUCUUAUAAA [JR_SV3TOV1_Sub058] (puzzle: Sensor v3, turn-off variant 1) | 33.6 nM | – | – | apparent KD of MS2 coat protein [3]: 56.7 nM; apparent KD of MS2 coat protein [4]: 69.3 nM
GUAAUGUGAGGAUAUGGUAAAGAUAAGAUGAUGAAAGAACUCCAGAAGGCACAUGAGGAUCACCCAUGUAGAUG [Mat - Exclusion 4 - Mod of JL - D27] (puzzle: Exclusion 4) | 26.1 nM | – | – | –
GCAUGGCGAGGAUAUACAUGAGGAUCACCCAUGUGAGAAUAAUAAGUGAGGAAGAAAAGUAGAAGGCGCUGUGG [Mat - Exclusion 3 - Mod of Salish D64] (puzzle: Exclusion 3) | 70.1 nM | – | – | apparent KD of MS2 coat protein [3]: 250 nM; apparent KD of MS2 coat protein [4]: 97.8 nM
GGAACUGGAGGAUAUACAUGAGGAUCACCCAUGUAUAGAUAUGGUUAUUAGCCUCAUAGUAGAAGGUUAGUGGC [EX3 C.4] (Eterna round: R97, puzzle: Exclusion 3) | – | 21.6 nM | 20.1 nM | –
AGCUAGAUAGGAUAUGCCCGAGAUAACAUGAGGAUCACCCAUGUGACCGAAUCAAAUCUAGCAGAAGGGUUUAGGA [Mod of ViennaUCT 15 - Jieux - Exclusion 5] (Eterna round: R97, puzzle: Exclusion 5) | – | 16.5 nM | 17.2 nM | –
GUUUCGAGACGGAGAUCCGACAUGAGGAUCACCCAUGUCUCACAAGCUUUUUGCUCGUCUUAUACUCCUCUGUUCUC [Elimod 48 - Jieux - Sensor, turn-off variant 1] (Eterna round: R97, puzzle: Sensor, turn-off variant 1) | – | 15.6 nM | 17.7 nM | –
AGCAGACGAGGAUAUAAACGAUAUAACAUGAGGAUCACCCAUGUACGAUCGAAUGAUCGUUUAGAAGGCGUCUGCU [E5/10-A2] (Eterna round: R97, puzzle: Exclusion 5) | – | 17.3 nM | 15.1 nM | –
ACUGCCACAGGAUAUACGAAACUCUUGGGUUCCGCCGUGUGACAUGAGGAUCACCCAUGUAGAAGGGUGGCUUA [Atbiinza] (puzzle: Exclusion 2) | 398 nM | – | – | –
CAGUACUGAGGAUAUACAUGAGGAUCACCCAUGUGCACCAGCUAGGAUACUAGCAAAAGUAGAAGGCAGUACUG [Mat - Exclusion 3 - Eli Mod - D19] (Eterna round: R97, puzzle: Exclusion 3) | – | 118 nM | 16.1 nM | –
CCCGCAGGUUUUUUGCUCGACAUGAGGAUCACCCAUGUUGCGUGGGUUGUGUGUGUGCGGUGUAUAUAUAUGGUCCU [-24.5, -48 kcal, A 14%] (Eterna round: R97, puzzle: Sensor, turn-off variant 1) | – | 305 nM | 371 nM | –
AAAACGGACCGAGGAUAUACAUGAUAUCUUUACGUAGAAGGCGGACCGGCGACUUGAGGAUCACCCAAGUGUCCUCUUUUGCGG [Mutated MS2 EX1.26] (Eterna round: R96, puzzle: Exclusion NG 1) | – | 184 nM | 46.7 nM | apparent KD of MS2 coat protein [2]: 51.1 nM
AGUCCAUAUGUUAGGAUAUGCAACUAGCCAUUGUAGCAGAAGGAACAUGAGGAUCACCCAUGUACAAAGACCCG [Biinvees] (puzzle: Brourd's mod of Exclusion 4) | 23.6 nM | – | – | apparent KD of MS2 coat protein [3]: 33.6 nM; apparent KD of MS2 coat protein [4]: 18.2 nM
CUUGUGUGAGGAUAUGCGUAGGCAGUAAGUAAGUAGCCGGAGCAGAAGGCACAUGAGGAUCACCCAUGUGUUAC [EX4 B.1] (Eterna round: R97, puzzle: Exclusion 4) | – | 121 nM | 72.6 nM | –
AUAAAUCAUGUAGGAUAUGCGUGGCGAAGCUAUGCAGAAGGACAUGAGGAUCACCCAUGUCUUUCCGUCUGCGUACAGACGGAA [Mat - Exclusion NG 1 - Mod of JL - D41] (Eterna round: R96, puzzle: Exclusion NG 1) | – | 289 nM | 24.5 nM | apparent KD of MS2 coat protein [2]: 23.6 nM
